Laboratory results from publication PMC5665175 (Immunity, 2017).
Changes are numbered by the printed parent chain. Numbers in names are those of the source.

Assays:
SEC = target: the molecule itself; test: SEC
SDD-AGE [1] = target: the molecule itself; test: SDD-AGE
SDD-AGE [2] = target: the molecule itself; test: SDD-AGE; remark: listed apart in the source
[3] = target: the molecule itself; test: ThT fluorescence of amyloid polymerisation
[4] = target: the molecule itself; test: X-ray diffraction from fibrils

B1: 6xHis-Sumo-PGRP-LC(201-242) WT (domain or fragment, D. melanogaster, UniProt Q9GNK5 201-242, looked up)
chain: ATQGIGSIALTNSTDVTFGDKHFYEGPVTIQQFLIDNRDKWK
B1: binds (SEC).

B2: 6xHis-Sumo-PGRP-LE(80-127) WT (domain or fragment, D. melanogaster, UniProt Q9VXN9 80-127, looked up)
chain: DLMNSINSIQTLGNVNISNSTNVHIGNVTNINGNIQIIADGLTQNRRD
B2: binds (SDD-AGE [1]).

B3: 6xHis-Sumo-PGRP-LC(201-242) D215A (domain or fragment, D. melanogaster, UniProt Q9GNK5 201-242, looked up)
chain: B1 chain with D15A
B3: binds (SDD-AGE [1]).

B4: 6xHis-Sumo-PGRP-LC(201-242) E225A (domain or fragment, D. melanogaster, UniProt Q9GNK5 201-242, looked up)
chain: B1 chain with E25A
B4: binds (SDD-AGE [1]).

B5: 6xHis-Sumo-PGRP-LE(80-127) I96A (domain or fragment, D. melanogaster, UniProt Q9VXN9 80-127, looked up)
chain: B2 chain with I17A
B5: binds (SDD-AGE [1]).

B6: 6xHis-Sumo-PGRP-LE(80-127) S99A (domain or fragment, D. melanogaster, UniProt Q9VXN9 80-127, looked up)
chain: B2 chain with S20A
B6: binds (SDD-AGE [1]).

B7: 6xHis-Sumo-PGRP-LE(80-127) I116A (domain or fragment, D. melanogaster, UniProt Q9VXN9 80-127, looked up)
chain: B2 chain with I37A
B7: binds (SDD-AGE [1]).

B8: 6xHis-Sumo-PGRP-LE(80-127) I104A (domain or fragment, D. melanogaster, UniProt Q9VXN9 80-127, looked up)
chain: B2 chain with I25A
B8: binds (SDD-AGE [1]).

B9: 6xHis-Sumo-Imd(31-273) (domain or fragment, D. melanogaster, UniProt Q7K4Z4 31-273, looked up)
chain: AAPVDDNEPDNNNSGALALPSTAGTPTASSDLTESVLRELSDPNYNSMDVVHSANIPGTLSNVQTNNTMNVHSAQQQVVMNFSNANNLHFGSVYNFNQNLSACSSRKGSTSTAEESVASPDGKPRASATRKTVSIVAMMQSQEEPDVRLLDVVSTHLGEGWKQVMRDLGMSEGQIDQAIIDHQMHGNIREVIYQLLLQWIRSSADGVATVGRLTTLLWESQHRDCVQRMKLVWKALEKRKTNS
B9: binds (SDD-AGE [2]).

B10: 6xHis-Sumo-Imd(31-167) (domain or fragment, D. melanogaster, UniProt Q7K4Z4 31-167, looked up)
chain: AAPVDDNEPDNNNSGALALPSTAGTPTASSDLTESVLRELSDPNYNSMDVVHSANIPGTLSNVQTNNTMNVHSAQQQVVMNFSNANNLHFGSVYNFNQNLSACSSRKGSTSTAEESVASPDGKPRASATRKTVSIVA
B10: binds (SDD-AGE [2]).

B11: 6xHis-Sumo-Imd(31-273) Δ114-121 (domain or fragment, D. melanogaster, UniProt Q7K4Z4 31-273, looked up)
chain: AAPVDDNEPDNNNSGALALPSTAGTPTASSDLTESVLRELSDPNYNSMDVVHSANIPGTLSNVQTNNTMNVHSAQQQVVMNFSSVYNFNQNLSACSSRKGSTSTAEESVASPDGKPRASATRKTVSIVAMMQSQEEPDVRLLDVVSTHLGEGWKQVMRDLGMSEGQIDQAIIDHQMHGNIREVIYQLLLQWIRSSADGVATVGRLTTLLWESQHRDCVQRMKLVWKALEKRKTNS
B11: binds (SDD-AGE [2]).

B12: 6xHis-Sumo-Imd(31-273) Δ76-109 (domain or fragment, D. melanogaster, UniProt Q7K4Z4 31-273, looked up)
chain: AAPVDDNEPDNNNSGALALPSTAGTPTASSDLTESVLRELSDPNYMNFSNANNLHFGSVYNFNQNLSACSSRKGSTSTAEESVASPDGKPRASATRKTVSIVAMMQSQEEPDVRLLDVVSTHLGEGWKQVMRDLGMSEGQIDQAIIDHQMHGNIREVIYQLLLQWIRSSADGVATVGRLTTLLWESQHRDCVQRMKLVWKALEKRKTNS
B12: binds (SDD-AGE [2]).

B13: 6xHis-Sumo-Imd(31-273) Δ144-177 (domain or fragment, D. melanogaster, UniProt Q7K4Z4 31-273, looked up)
chain: AAPVDDNEPDNNNSGALALPSTAGTPTASSDLTESVLRELSDPNYNSMDVVHSANIPGTLSNVQTNNTMNVHSAQQQVVMNFSNANNLHFGSVYNFNQNLSACSSRKGSTSTARLLDVVSTHLGEGWKQVMRDLGMSEGQIDQAIIDHQMHGNIREVIYQLLLQWIRSSADGVATVGRLTTLLWESQHRDCVQRMKLVWKALEKRKTNS
B13: binds (SDD-AGE [2]).

B14: 6xHis-Sumo-Imd(3-273) (domain or fragment, D. melanogaster, UniProt Q7K4Z4 3-273, looked up)
chain: KLRNLLPTIFGGKEAQNPTPVEGRLEKDAAPVDDNEPDNNNSGALALPSTAGTPTASSDLTESVLRELSDPNYNSMDVVHSANIPGTLSNVQTNNTMNVHSAQQQVVMNFSNANNLHFGSVYNFNQNLSACSSRKGSTSTAEESVASPDGKPRASATRKTVSIVAMMQSQEEPDVRLLDVVSTHLGEGWKQVMRDLGMSEGQIDQAIIDHQMHGNIREVIYQLLLQWIRSSADGVATVGRLTTLLWESQHRDCVQRMKLVWKALEKRKTNS
B14: binds [3].

B15: 6xHis-Sumo-Imd(100-125) (domain or fragment, D. melanogaster, UniProt Q7K4Z4 100-125, looked up)
chain: NVHSAQQQVVMNFSNANNLHFGSVYN
B15: binds [4].
